For data set [1], the system named is Immunoglobulin G (total IgG) (Homo sapiens). Description: filter.
Data set [2] deals with IgG4-Fc (Homo sapiens), P01861-1. Description: filter. The following applies: n (P) = NapdU; Zorbax, SB18, 37 C.
In data set [3] the test system is IgG2-Fc (Homo sapiens), P01859-1. Nature of the data set: filter. Conditions: n (P) = NapdU; Zorbax, SB18, 37 C.
For data set [4], the system named is IgG3-Fc (Homo sapiens), P01860-1. Description: filter. The following applies: n (P) = NapdU; Zorbax, SB18, 37 C.
IgG3-Fc (Homo sapiens), P01860-1, sequence (P01860 other isoform, or with tags, fused parts or gaps): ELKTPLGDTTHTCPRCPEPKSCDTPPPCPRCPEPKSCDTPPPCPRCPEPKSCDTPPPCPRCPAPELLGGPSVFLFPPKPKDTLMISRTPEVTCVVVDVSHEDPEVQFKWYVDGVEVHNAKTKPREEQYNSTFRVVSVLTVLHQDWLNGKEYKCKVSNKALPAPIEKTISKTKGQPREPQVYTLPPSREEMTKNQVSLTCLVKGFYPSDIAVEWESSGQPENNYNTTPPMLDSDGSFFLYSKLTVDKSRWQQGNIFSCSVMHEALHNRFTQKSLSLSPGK
The test system of data set [5] is Total IgG (monkey) (monkey). Nature of the data set: filter. Conditions: n (P) = NapdU; Zorbax, SB18, 37 C.
Data set [6] relates to IgG1-Fc (Homo sapiens), P01857-1. Description: filter. The following applies: n (P) = NapdU; Zorbax, SB18, 37 C.
The subject of data set [7] is β-FGFR fusion (Fc fusion protein) (Homo sapiens). Nature of the data set: filter. The following applies: n (P) = NapdU; Zorbax, SB18, 37 C.
Data set [8] has as its system IgA (Homo sapiens). Description: filter. The following applies: n (P) = NapdU; Zorbax, SB18, 37 C.
The subject of data set [9] is IgM (Homo sapiens). Nature of the data set: filter. Conditions: n (P) = NapdU; Zorbax, SB18, 37 C.
The test system of data set [10] is IgD (Homo sapiens). Nature of the data set: filter. The following applies: n (P) = NapdU; Zorbax, SB18, 37 C.
The test system of data set [11] is Total IgG (rabbit) (Oryctolagus cuniculus). Nature of the data set: filter. Conditions: n (P) = NapdU; Zorbax, SB18, 37 C.
In data set [12] the test system is Immunoglobulin G (total IgG). Nature of the data set: pulldown. The following applies: SB18, 37C.
Data set [13] deals with IgG3-Kappa (Homo sapiens), P01860-1+P01834. Nature of the data set: pulldown. The following applies: Protein L beads.
IgG3-Kappa (Homo sapiens), P01860-1+P01834, sequence (P01860 other isoform, or with tags, fused parts or gaps, chain 1 of 2, other chains not shown): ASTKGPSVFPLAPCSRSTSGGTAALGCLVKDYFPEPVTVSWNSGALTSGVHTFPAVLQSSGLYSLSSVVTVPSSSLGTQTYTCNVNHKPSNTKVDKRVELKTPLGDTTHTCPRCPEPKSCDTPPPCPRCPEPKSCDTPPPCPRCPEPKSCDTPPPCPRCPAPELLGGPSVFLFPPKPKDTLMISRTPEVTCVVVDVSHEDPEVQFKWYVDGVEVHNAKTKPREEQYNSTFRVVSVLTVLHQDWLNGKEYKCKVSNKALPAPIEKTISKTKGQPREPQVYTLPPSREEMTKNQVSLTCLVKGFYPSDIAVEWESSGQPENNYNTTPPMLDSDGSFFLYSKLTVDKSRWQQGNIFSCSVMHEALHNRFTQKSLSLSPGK
In data set [14] the test system is IgG4-Kappa (Homo sapiens), P01861-1+P01834. Description: pulldown. The following applies: Protein L beads.
IgG4-Kappa (Homo sapiens), P01861-1+P01834, sequence (P01861 other isoform, or with tags, fused parts or gaps, chain 1 of 2, other chains not shown): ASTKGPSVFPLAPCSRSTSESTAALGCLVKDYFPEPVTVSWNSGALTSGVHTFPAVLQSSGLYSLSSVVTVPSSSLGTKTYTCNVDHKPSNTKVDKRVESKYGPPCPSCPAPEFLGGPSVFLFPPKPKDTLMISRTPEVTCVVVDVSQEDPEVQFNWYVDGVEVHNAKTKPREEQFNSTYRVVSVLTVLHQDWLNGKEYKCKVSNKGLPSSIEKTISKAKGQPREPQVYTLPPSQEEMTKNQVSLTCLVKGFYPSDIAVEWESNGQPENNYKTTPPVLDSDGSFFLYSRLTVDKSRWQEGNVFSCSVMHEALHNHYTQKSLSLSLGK
In data set [15] the test system is IgG1-Kappa (Homo sapiens), P01857-1+P01834. Description: pulldown. The following applies: Protein L beads.
The test system of data set [16] is IgG4-Fc (Homo sapiens), P01861-1. Description: pulldown. Conditions: 37C, bead partitioning.
Data set [17] deals with Total IgG (mouse) (Mus musculus). Nature of the data set: pulldown. The following applies: P = 2NapdU; Zorbax beads, SB18, 37C.
Data set [18] deals with IgG2-Fc (Homo sapiens), P01859-1. Nature of the data set: pulldown. Conditions: 37C, bead partitioning.
The subject of data set [19] is IgG3-Fc (Homo sapiens), P01860-1. Nature of the data set: pulldown. The following applies: 37C, bead partitioning.
In data set [20] the test system is IgG1 (mouse) (Mus musculus). Description: pulldown. Conditions: P = 2NapdU; Protein L beads, SB17; printed as 3E07 (minus sign missing).
The subject of data set [21] is Total IgG (monkey) (monkey). Description: pulldown. Conditions: Zorbax beads, SB18, 37C.
Data set [22] has as its system IgG1-Fc (Homo sapiens), P01857-1. Description: pulldown. The following applies: 37C, bead partitioning.
Data set [23] relates to β-FGFR fusion (Fc fusion protein) (Homo sapiens). Description: pulldown. Conditions: 37C, bead partitioning.
In data set [24] the test system is IgA (Homo sapiens). Nature of the data set: pulldown. The following applies: Zorbax beads, SB18, 37C.
The test system of data set [25] is Total IgG (cow) (Bos taurus). Nature of the data set: pulldown. The following applies: P = 2NapdU; Zorbax beads, SB18, 37C.
For data set [26], the system named is IgM (cow) (Bos taurus). Description: pulldown. The following applies: P = 2NapdU; Zorbax beads, SB18, 37C.
In data set [27] the test system is Total IgG (goat) (Capra hircus). Nature of the data set: pulldown. The following applies: P = 2NapdU; Zorbax beads, SB18, 37C.
Data set [28] relates to IgM (Homo sapiens). Description: pulldown. Conditions: Zorbax beads, SB18, 37C.
For data set [29], the system named is IgD (Homo sapiens). Nature of the data set: pulldown. Conditions: Zorbax beads, SB18, 37C.
Data set [30] concerns Total IgG (sheep) (Ovis aries). Description: pulldown. Conditions: P = 2NapdU; Zorbax beads, SB18, 37C.
The test system of data set [31] is Total IgG (rabbit) (Oryctolagus cuniculus). Nature of the data set: pulldown. The following applies: Zorbax beads, SB18, 37C.
Setting [32] is: n (P) = NapdU, SB18, 5 mM MgCl2, 37 C.
Setting [33] is: n (P) = NapdU, considered no binding.
Where [34] appears, read: n (P) = NapdU, SB18, 5 mM MgCl2, 37 C, sequence identical to _21 to _25.
Setting [35] is: n (P) = 2NapdU, SB18, 5 mM MgCl2, 37 C.

IgG4-Fc (Homo sapiens), P01861-1, sequence (P01861 other isoform, or with tags, fused parts or gaps): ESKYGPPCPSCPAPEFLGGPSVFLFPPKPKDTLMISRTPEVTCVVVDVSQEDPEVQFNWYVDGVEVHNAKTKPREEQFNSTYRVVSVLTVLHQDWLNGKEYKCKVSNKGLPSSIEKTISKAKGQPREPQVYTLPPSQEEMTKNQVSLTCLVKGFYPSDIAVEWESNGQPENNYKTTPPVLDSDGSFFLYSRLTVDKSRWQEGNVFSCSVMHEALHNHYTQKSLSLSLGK
IgG2-Fc (Homo sapiens), P01859-1, sequence (P01859 other isoform, or with tags, fused parts or gaps): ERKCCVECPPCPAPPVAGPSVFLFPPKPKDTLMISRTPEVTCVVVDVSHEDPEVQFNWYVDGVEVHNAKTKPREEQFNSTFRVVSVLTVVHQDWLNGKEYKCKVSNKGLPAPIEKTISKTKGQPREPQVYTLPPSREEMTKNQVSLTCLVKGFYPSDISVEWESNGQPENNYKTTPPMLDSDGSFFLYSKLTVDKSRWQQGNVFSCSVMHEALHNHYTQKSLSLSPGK

As for “GCACGATGGCGAACTCCCTGAATGCTCTTGTCTTAAGTCCCCAACA [14125-144_5]”, the Kd (in general, the concentration at which binding is half-saturated) in data set [1] (setting [32]) turned out to be 8.87 nM.

In data set [1] (setting [33]), “GCCTGCACGATGGCGAACTCCCTGAATGCTCTTG [14125-144_19]” showed a Kd greater than 1000 nM.

In data set [1] (setting [32]), “GCCTGCACGATGGCGAACTCCCTGAATGCTCTTGTCTTAA [14125-144_16]” showed a Kd of 8.82 nM.

“GCCTGCACGATGGCGAACTCCCTGAATGCTCTTGTCTTAAGTCC [14125-144_14]” displayed a Kd in data set [1] (setting [32]) of 15.8 nM.

In [1] (setting [32]), “GCCTGCACGATGGCGAACTCCCTGAATGCTCTTGTCTTAAGTCCCC [14125-144_13]” displayed a Kd of 14.3 nM.

Take “GCCTGCACGATGGCGAACTCCCTGAATGCTCTTGTCTTAAGTCCCCAA [14125-144_12]”: the Kd in data set [1] (setting [32]) turned out to be 17.2 nM.

As to “GCCTGCACGATGGCGAACTCCCTGAATGCTCTTGTCTTAAGTCCCCAACA [14125-144_3]”, the Kd in [2] amounted to 20 nM; in data set [3] it was 8 nM; in [4] it was 5 nM; in data set [5], 80 nM; in data set [6], 40 nM; in [7], 3 nM. Further, the Kd in data set [8] turned out to be 30 nM; in [9] it was 40 nM; in data set [10], 600 nM; in [11] it was 40 nM; in data set [12] (P = NapdU at all n positions, 18.8 nM in Table 6), 16.3 nM; in data set [13] (n (P) = NapdU, SB17, 37 C), 4 nM. For the same sequence, the Kd was determined as 5 nM in data set [14] (n (P) = NapdU, SB17, 37 C) and 20 nM in data set [15] (n (P) = NapdU, SB17, 37 C).

“GCGGTTACCTTGTAGGCGATTATGGGCA [5334-8_34]”: the Kd in data set [16] (P = 2NapdU) was 2 nM; in [17] it was 200 nM; in data set [18] (P = 2NapdU) it was 2 nM; in data set [12] (P = 2NapdU, 8E-09 M in Table 7) it was 9.71 nM; in [19] (P = 2NapdU), 1 nM; in data set [20] it was 300 nM. Moreover, the dissociation constant (Kd) in data set [13] (P = 2NapdU, SB17, 37C) was determined as 4 nM; in data set [21] (P = 2NapdU), 6 nM; in data set [22] (P = 2NapdU), 5 nM; in data set [23] (P = 2NapdU), 2 nM; in [24] (P = 2NapdU), 40 nM; in [25], 500 nM. For the same sequence, the Kd in data set [26] came out at 40 nM; in [27], 600 nM; in [28] (P = 2NapdU) it was 0.6 nM; in [14] (P = 2NapdU, SB17, 37C), 3 nM; in data set [29] (P = 2NapdU), 60 nM; in data set [30], 500 nM. For the same sequence, the Kd in data set [31] (P = 2NapdU) amounted to 9 nM; in data set [15] (P = 2NapdU, SB17, 37C), 20 nM.

“GGCGAACTCCCTGAATGCTCTTGTC [14125-144_39]” returned a Kd in data set [1] (setting [33]) greater than 1000 nM.

The sequence “GGCGAACTCCCTGAATGCTCTTGTCT [14125-144_35]” had a Kd in [1] (setting [33]) greater than 1000 nM.

“GGTACGATTTTCAGTTGGATCCAGTAC [5406-56_48]”: the Kd was determined as 30 nM in [16] (P = NapdU); 5.81 nM in data set [12] (P = NapdU, 6E-09 M in Table 7); 70 nM in [19] (P = NapdU); 100 nM in data set [13] (P = NapdU, SB17, 37C); 100 nM in data set [21] (P = NapdU); 3 nM in [22] (P = NapdU). For the same sequence, the Kd came out at 4 nM in data set [23] (P = NapdU); 200 nM in data set [24] (P = NapdU); 70 nM in data set [28] (P = NapdU); 50 nM in data set [14] (P = NapdU, SB17, 37C); 500 nM in data set [29] (P = NapdU); 2 nM in [15] (P = NapdU, SB17, 37C).

On to “GGTACGATTTTCAGTTGGATCCAGTACC [5406-56_42]”, for which, in [1] (setting [32]), the Kd was found to be 4.97 nM.

In [1] (setting [32]), “GGTACGATTTTCAGTTGGATCCAGTACCT [5406-56_36]” displayed a Kd of 3.44 nM.

Turning to “GGTACGATTTTCAGTTGGATCCAGTACCTG [5406-56_30]”, the Kd in data set [1] (setting [32]) amounted to 3.22 nM.

With “GGTACGATTTTCAGTTGGATCCAGTACCTGG [5406-56_24]”, in data set [1] (setting [34]), the Kd stood at 5.1 nM.

In [1] (setting [32]), “GTACGATTTTCAGTTGGATCCAGTACC [5406-56_43]” had a Kd of 11 nM.

“GTACGATTTTCAGTTGGATCCAGTACCTGG [5406-56_25]” gave a Kd in data set [1] (setting [34]) of 21.9 nM.

Sequence “TACGGTACGATTTTCAGTTGGATCCAGTAC [5406-56_45]” registered a Kd in [1] (setting [32]) of 21.8 nM.

In the case of “TACGGTACGATTTTCAGTTGGATCCAGTACC [5406-56_39]”, the Kd in [1] (setting [32]) was found to be 6.74 nM.

In turn, “TACGGTACGATTTTCAGTTGGATCCAGTACCT [5406-56_33]” yielded a Kd in [1] (setting [32]) of 5.31 nM.

Regarding “TACGGTACGATTTTCAGTTGGATCCAGTACCTG [5406-56_27]”, the Kd in data set [1] (setting [32]) was 5.56 nM.

For the sequence “TCCAAGACTGCGGTTACCTTGTAGGCGATTATGGGCAG [5334-8_9]”, in data set [1] (setting [35]), the Kd stood at 8.38 nM.

In data set [1] (setting [35]), “TGCGGTTACCTTGTAGGCGATTATGGGCAG [5334-8_24]” had a Kd of 5.51 nM.

As to “TGGCGAACTCCCTGAATGCTCTTGTCTT [14125-144_30]”, the Kd in data set [16] (P = NapdU) was 30 nM; in data set [18] (P = NapdU), 7 nM; in data set [12] (P = NapdU, 3E-08 M in Table 7), 8.18 nM; in data set [19] (P = NapdU), 2 nM; in [13] (P = NapdU, SB17, 37C), 8 nM; in data set [21] (P = NapdU), 60 nM. Moreover, the Kd was 30 nM in data set [22] (P = NapdU); 4 nM in data set [23] (P = NapdU); 100 nM in data set [24] (P = NapdU); 6 nM in [28] (P = NapdU); 4 nM in [14] (P = NapdU, SB17, 37C); 80 nM in data set [29] (P = NapdU). Moreover, the Kd in data set [31] (P = NapdU) worked out at 100 nM; in [15] (P = NapdU, SB17, 37C) it was 40 nM.

These data come from patent US20210317456.
